In patent publication US20220411483A1 (Chugai, published 2022):
Changes are numbered by the printed parent chain. Numbers in names are those of the source.

T1: FcgRIIb (human, UniProt P31994 43-217)
T1 construct: extracellular domain; also called FcγRIIb
T1 sequence (looked up): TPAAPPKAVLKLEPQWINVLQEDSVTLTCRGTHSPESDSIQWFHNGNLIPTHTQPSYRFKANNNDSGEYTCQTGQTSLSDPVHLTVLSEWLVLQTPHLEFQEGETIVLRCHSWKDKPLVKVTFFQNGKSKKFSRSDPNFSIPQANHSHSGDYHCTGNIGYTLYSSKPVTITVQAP

T2: FcgRIIaR (human, UniProt P12318 34-217)
T2 construct: extracellular domain; also called FcγRIIa R type; FcγRIIa (R type)
T2 sequence (looked up): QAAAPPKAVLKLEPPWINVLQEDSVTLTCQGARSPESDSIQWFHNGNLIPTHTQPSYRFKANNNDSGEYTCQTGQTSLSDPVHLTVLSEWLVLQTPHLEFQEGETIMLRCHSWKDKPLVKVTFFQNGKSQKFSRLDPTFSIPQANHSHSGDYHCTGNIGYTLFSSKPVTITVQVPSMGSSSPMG

T3: FcgRIIaH (human, UniProt P12318 34-217)
T3 construct: extracellular domain; also called FcγRIIa H type
T3 sequence (looked up): T2 sequence (looked up) with R134H

B1: IL6R-BP324/IL6R-L (antibody, human IgG1, kappa, name in EU numbering)
heavy: QVQLQESGPGLVKPSETLSLTCAVSGHSISHDHAWSWVRQPPGEGLEWIGFISYSGITNYNPSLQGRVTISRDNSKNTLYLQMNSLRAEDTAVYYCARSLARTTAMDYWGEGTLVTVSSASTKGPSVFPLAPSSKSTSGGTAALGCLVKDYFPEPVTVSWNSGALTSGVHTFPAVLQSSGLYSLSSVVTVPSSSLGTQTYICNVNHKPSNTKVDKKVEPKSCDKTHTCPPCPAPDLLGDDSVFLFPPKPKDTLMISRTPEVTCVVVRVSEEDGEVKFNWYVDGVEVHNAKTKPREEQYNSTYRVVSVLTVLHQDWLNGKEYKCKVSNKALPAPIEKTISKAKGQPREPQVYTLPPSRDELTKNQVSLTCLVKGFYPSDIAVEWESNGQPENNYKTTPPVLDSDGSFFLYSKLTVDKSRWQQGNVFSCSVMHEALHNHYTQESLSLSP
light: not shown
B2: IL6R-BP355/IL6R-L (antibody, human IgG1, kappa, name in EU numbering)
heavy: B1 heavy with R267D, S269K
light: not shown
B3: IL6R-BP361/IL6R-L (antibody, human IgG1, kappa, name in EU numbering)
heavy: B1 heavy with R267D, S269R
light: not shown
B4: IL6R-BP267/IL6R-L (antibody, human IgG1, kappa)
heavy: B1 heavy with R267D
light: not shown
notes: IL6R-BF648 with E233D/G237D/H268E/P271G
B5: IL6R-BP321/IL6R-L (antibody, human IgG1, kappa, name in EU numbering)
heavy: B1 heavy with R267N
light: not shown
B6: IL6R-BP318/IL6R-L (antibody, human IgG1, kappa, name in EU numbering)
heavy: B1 heavy with R267K
light: not shown
B7: IL6R-BP325/IL6R-L (antibody, human IgG1, kappa, name in EU numbering)
heavy: B1 heavy with R267S
light: not shown
B8: IL6R-P699/IL6R-L (antibody, human IgG1, kappa)
heavy: B1 heavy with D239G, V266I, R267D, S269R, E270P, E441K
light: not shown
notes: Printed H238P read as H268P
B9: IL6R-P702/IL6R-L (antibody, human IgG1, kappa)
heavy: B1 heavy with D239G, F243M, V266I, R267D, S269R, E441K
light: not shown
B10: IL6R-P694/IL6R-L (antibody, human IgG1, kappa)
heavy: B1 heavy with D239G, V266I, R267D, S269R, Y298E, E441K
light: not shown
B11: IL6R-P712/IL6R-L (antibody, human IgG1, kappa)
heavy: B1 heavy with D239G, V266I, R267D, S269R, E270P, Y298E, E441K
light: not shown
B12: IL6R-P730/IL6R-L (antibody, human IgG1, kappa)
heavy: B1 heavy with D239Q, V266I, R267D, S269R, E270P, Y298E, E441K
light: not shown

Target: T1, FcgRIIb
Assay: SPR, amount bound per captured antibody

Relative FcgRIIb-binding Activity [IL6R-BP267/IL6R-L=100]	Binder
3.2	B1
14.4	B2
27.7	B3
100	B4
31.7	B5
2.3	B6
21	B7

Target: T2, FcgRIIaR
Assay: SPR, amount bound per captured antibody

Relative FcgRIIaR-binding Activity [IL6R-BP267/IL6R-L=100]	Binder
3.7	B1
11.6	B2
17.3	B3
100	B4
16.3	B5
4.3	B6
11.6	B7

Target: T3, FcgRIIaH
Assay: SPR (Biacore)

Relative FcgRIIaH-binding Activity	Binder
0.004 KD(G1d)/KD(variant)	B8
0.006 KD(G1d)/KD(variant)	B9
0.005 KD(G1d)/KD(variant)	B10
0.003 KD(G1d)/KD(variant)	B11
0.003 KD(G1d)/KD(variant)	B12

Target: T1, FcgRIIb
Assay: SPR (Biacore)

Relative FcgRIIb-binding Activity	Binder
1.26 KD(G1d)/KD(variant)	B8
1.27 KD(G1d)/KD(variant)	B9
1.83 KD(G1d)/KD(variant)	B10
1.52 KD(G1d)/KD(variant)	B11
0.504 KD(G1d)/KD(variant)	B12

Target: T4, FcgRIa (human, UniProt P12314 16-292)
T4 construct: also called FcγRIa; FcγRI
Assay: SPR (Biacore)

T4 sequence (P12314 16-292): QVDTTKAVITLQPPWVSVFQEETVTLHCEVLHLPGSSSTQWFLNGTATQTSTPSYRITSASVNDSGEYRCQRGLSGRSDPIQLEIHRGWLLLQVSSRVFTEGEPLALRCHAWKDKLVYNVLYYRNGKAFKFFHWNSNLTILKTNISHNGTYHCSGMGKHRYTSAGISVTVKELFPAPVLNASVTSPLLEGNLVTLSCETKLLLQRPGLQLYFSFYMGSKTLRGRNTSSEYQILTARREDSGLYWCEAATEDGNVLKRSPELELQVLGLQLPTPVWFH

Relative FcgRIa-binding Activity	Binder
0.0005 KD(G1d)/KD(variant)	B8
0.0006 KD(G1d)/KD(variant)	B9
0.0008 KD(G1d)/KD(variant)	B10
0.0005 KD(G1d)/KD(variant)	B11
0.0002 KD(G1d)/KD(variant)	B12

Target: T5, FcgRIIIaV (human, UniProt P08637 17-208)
T5 construct: extracellular domain; also called FcγRIIIa V type
Assay: SPR (Biacore)

T5 sequence (P08637 17-208 F176V): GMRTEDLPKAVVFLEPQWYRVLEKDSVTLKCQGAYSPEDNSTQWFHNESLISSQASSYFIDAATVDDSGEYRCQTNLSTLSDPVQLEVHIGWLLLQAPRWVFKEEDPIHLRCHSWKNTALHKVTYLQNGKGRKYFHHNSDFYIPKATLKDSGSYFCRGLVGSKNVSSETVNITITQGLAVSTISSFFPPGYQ

Relative FcgRIIIaV-binding Activity	Binder
0.005 KD(G1d)/KD(variant)	B8
0.008 KD(G1d)/KD(variant)	B9
0.007 KD(G1d)/KD(variant)	B10
0.004 KD(G1d)/KD(variant)	B11
0.005 KD(G1d)/KD(variant)	B12

Target: T2, FcgRIIaR
Assay: SPR (Biacore)

Relative FcgRIIaR-binding Activity	Binder
0.022 KD(G1d)/KD(variant)	B8
0.023 KD(G1d)/KD(variant)	B9
0.02 KD(G1d)/KD(variant)	B10
0.017 KD(G1d)/KD(variant)	B11
0.013 KD(G1d)/KD(variant)	B12
